koff data for four molecules are collected here from patent US20110053865A1 (published 2011).

Like-named read-outs stand apart in the source and are kept apart here.

The target in assay [1] is T1, recombinant human IL-12 (human, UniProt P29459 23-219; P29460 23-328).
T1 chain 1: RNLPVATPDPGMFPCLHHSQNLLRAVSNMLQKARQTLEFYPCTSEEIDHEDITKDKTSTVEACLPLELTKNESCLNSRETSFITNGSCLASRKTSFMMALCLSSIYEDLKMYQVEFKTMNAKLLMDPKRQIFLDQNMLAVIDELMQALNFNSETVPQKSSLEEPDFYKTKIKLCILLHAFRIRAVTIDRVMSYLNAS
T1 chain 2: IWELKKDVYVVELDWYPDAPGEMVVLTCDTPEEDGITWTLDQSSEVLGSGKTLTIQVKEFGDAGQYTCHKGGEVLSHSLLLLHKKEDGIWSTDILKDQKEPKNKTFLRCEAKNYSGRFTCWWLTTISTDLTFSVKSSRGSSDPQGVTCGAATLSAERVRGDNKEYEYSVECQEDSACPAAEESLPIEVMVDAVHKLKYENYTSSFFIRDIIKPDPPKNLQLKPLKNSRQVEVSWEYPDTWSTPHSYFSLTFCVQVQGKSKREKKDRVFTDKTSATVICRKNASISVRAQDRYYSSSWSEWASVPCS
In words: Biacore. On the technique in general: SPR reads the build-up and loss of mass on a sensor chip optically.

Assay [2] deals with T1, recombinant human IL-12. In words: Biacore.
In assay [3] the target is 124H2. Nature of the assay: Biacore.
In assay [4] the target is 124B5. Nature of the assay: Biacore.
Assay [5] addresses 124H5. Nature of the assay: Biacore.
In assay [6] the target is 124D11. Nature of the assay: Biacore.
The target of assay [7] is 124D4. Nature of the assay: Biacore.
The target in assay [8] is 124G4. Nature of the assay: Biacore.
For assay [9], the target named is 4E7. Nature of the assay: Biacore; R&D hIL23.
Assay [10] deals with 12C10. Nature of the assay: Biacore; R&D hIL23.
Assay [11] deals with 12H2. Nature of the assay: Biacore; R&D hIL23.
In assay [12] the target is 124F10. Nature of the assay: Biacore; R&D hIL23.
For assay [13], the target named is 12F11. Nature of the assay: Biacore; R&D hIL23.
Assay [14] deals with 124H2. Nature of the assay: Biacore; R&D hIL23.
The target in assay [15] is 124B5. In words: Biacore; R&D hIL23.
For assay [16], the target named is 4E11. Nature of the assay: Biacore; R&D hIL23.
Assay [17] concerns the target 12D11. Nature of the assay: Biacore; R&D hIL23.
Assay [18] has as its target 12A11. Nature of the assay: Biacore; R&D hIL23.
In assay [19] the target is 12A4. Nature of the assay: Biacore; R&D hIL23.
The target in assay [20] is 124H5. Nature of the assay: Biacore; R&D hIL23.
In assay [21] the target is 12D2. In words: Biacore; R&D hIL23.
The target in assay [22] is 124D11. In words: Biacore; R&D hIL23.
In assay [23] the target is 12G7. In words: Biacore; R&D hIL23.
For assay [24], the target named is 4E3. In words: Biacore; R&D hIL23.
The target in assay [25] is 4D2. In words: Biacore; R&D hIL23.
In assay [26] the target is 124E5. Nature of the assay: Biacore; R&D hIL23.
Assay [27] addresses 124F9. Nature of the assay: Biacore; R&D hIL23.
In assay [28] the target is 124E3. Nature of the assay: Biacore; R&D hIL23.
The target in assay [29] is 124F7. Nature of the assay: Biacore; R&D hIL23.
The target of assay [30] is 124C3. In words: Biacore; R&D hIL23.
Assay [31] concerns the target 124H1. Nature of the assay: Biacore; R&D hIL23.
Assay [32] concerns the target 124D2. In words: Biacore; R&D hIL23.
Assay [33] concerns the target 124D4. Nature of the assay: Biacore; R&D hIL23.
Assay [34] deals with 4A11. Nature of the assay: Biacore; R&D hIL23.
Assay [35] has as its target 124G4. Nature of the assay: Biacore; R&D hIL23.
The target of assay [36] is 124B6. Nature of the assay: Biacore; R&D hIL23.
Assay [37] has as its target 124G2. In words: Biacore; R&D hIL23.
In assay [38] the target is 12E11. In words: Biacore; R&D hIL23.
In assay [39] the target is 124C5. Nature of the assay: Biacore; R&D hIL23.
Assay [40] has as its target 121C1. Nature of the assay: Biacore.
In assay [41] the target is 80C10. Nature of the assay: Biacore.
Assay [42] concerns the target 3A7. Nature of the assay: Biacore.
The target in assay [43] is 121C1 = 84D3. In words: Biacore.
Assay [44] has as its target 1G8. In words: Biacore.
The target of assay [45] is 3G9. In words: Biacore.
The target of assay [46] is 3E1. Nature of the assay: Biacore.
The target of assay [47] is 3C7. Nature of the assay: Biacore.
Assay [48] has as its target 3H5. Nature of the assay: Biacore.
The target in assay [49] is 3D4. In words: Biacore.
For assay [50], the target named is 3A10. Nature of the assay: Biacore.
Assay [51] addresses 4F3. Nature of the assay: Biacore.
In assay [52] the target is 80C10. In words: Biacore. The source holds these as a separate data set.
Assay [53] has as its target 3A11. In words: Biacore.

B1: P23IL81E10 (VHH)
VHH: EVQLVESGGGLVQAGGSLRLSCVASGRTFNTYGMGWFRQAPGKEREFVAANNWSGGATSYADSVKGRFTISRDNAKNTVFLQMNTLKPEDTAVYYCAAADRGGGWLVVRENDYDYWGQGTQVTVSS
The term koff denotes the first-order rate constant of dissociation. Take B1: the koff in [1] and in assay [2] was 0.00266 s⁻¹ in each case.

B2: R&D mIL23 (ligand)
chain 1: VPRSSSPDWAQCQQLSRNLCMLAWNAHAPAGHMNLLREEEDEETKNNVPRIQCEDGCDPQGLKDNSQFCLQRIRQGLAFYKHLLDSDIFKGEPALLPDSPMEQLHTSLLGLSQLLQPEDHPRETQQMPSLSSSQQWQRPLLRSKILRSLQAFLAIAARVFAHGAATLTEPLVPTA
chain 2: MWELEKDVYVVEVDWTPDAPGETVNLTCDTPEEDDITWTSDQRHGVIGSGKTLTITVKEFLDAGQYTCHKGGETLSHSHLLLHKKENGIWSTEILKNFKNKTFLKCEAPNYSGRFTCSWLVQRNMDLKFNIKSSSSSPDSRAVTCGMASLSAEKVTLDQRDYEKYSVSCQEDVTCPTAEETLPIELALEARQQNKYENYSTSFFIRDIIKPDPPKNLQMKPLKNSQVEVSWEYPDSWSTPHSYFSLKFFVRIQRKKEKMKETEEGCNQKGAFLVEKTSTEVQCKGGNVCVQAQDRYYNSSCSKWACVPCRVRS
Turning to B2, the koff came to 0.00291 s⁻¹ in assay [3]; 0.00105 s⁻¹ in assay [4]; 0.00304 s⁻¹ in assay [5]; 0.00744 s⁻¹ in assay [6]; 0.0029 s⁻¹ in assay [7]; 0.00329 s⁻¹ in [8].

B3: R&D hIL23 (ligand)
chain 1: RAVPGGSSPAWTQCQQLSQKLCTLAWSAHPLVGHMDLREEGDEETTNDVPHIQCGDGCDPQGLRDNSQFCLQRIHQGLIFYEKLLGSDIFTGEPSLLPDSPVGQLHASLLGLSQLLQPEGHHWETQQIPSLSPSQPWQRLLLRFKILRSLQAFVAVAARVFAHGAATLSP
chain 2: T1 chain 2
With B3, the koff in assay [9] is 0.000101 s⁻¹; in assay [10] it was 0.000289 s⁻¹; in assay [11], 0.000126 s⁻¹; in assay [12] it was 0.000169 s⁻¹; in assay [13], 0.000235 s⁻¹; in assay [14], 0.000116 s⁻¹. Moreover, the dissociation rate constant (koff) in assay [15] was determined as 0.00022 s⁻¹; in [16], 0.000126 s⁻¹; in assay [17] it was 0.000121 s⁻¹; in assay [18], 0.000134 s⁻¹; in assay [19], 0.000295 s⁻¹; in assay [20], 0.000246 s⁻¹. The koff in assay [21] was 0.000101 s⁻¹; in assay [22] it was 0.000259 s⁻¹; in assay [23] it was 0.000242 s⁻¹; in assay [24], 0.000164 s⁻¹; in [25] it was 0.000111 s⁻¹; in assay [26], 0.000187 s⁻¹. Moreover, the dissociation rate constant (koff) in assay [27] was determined as 0.00031 s⁻¹; in [28] it was 0.000261 s⁻¹; in assay [29], 0.000382 s⁻¹; in [30], 0.000123 s⁻¹; in assay [31], 0.000158 s⁻¹; in [32], 9.08e-05 s⁻¹. Also, the koff in assay [33] worked out at 0.000348 s⁻¹; in assay [34] it was 0.00032 s⁻¹; in [35], 0.000146 s⁻¹; in [36] it was 0.000249 s⁻¹; in assay [37] it was 6.55e-05 s⁻¹; in assay [38], 0.000237 s⁻¹. This molecule came in with an off-rate (koff) in assay [39] of 0.000357 s⁻¹.

B4: hIL12 (ligand)
chain 1: T1 chain 1
chain 2: T1 chain 2
In the case of B4, the dissociation rate constant (koff) turned out to be 0.0371 s⁻¹ in assay [40]; 0.000578 s⁻¹ in assay [41]; 0.00588 s⁻¹ in assay [42]; 0.0371 s⁻¹ in assay [43]; 0.000779 s⁻¹ in assay [44]; 0.00768 s⁻¹ in assay [45]. In addition, the koff in assay [46] is 0.00956 s⁻¹; in assay [47], 0.0119 s⁻¹; in assay [48] it was 0.00375 s⁻¹; in assay [49], 0.00714 s⁻¹; in assay [50], 0.00353 s⁻¹; in [51] it was 0.00255 s⁻¹. In addition, the koff turned out to be 0.000578 s⁻¹ in [52] and 0.00636 s⁻¹ in assay [53].
